Experiment [1] concerns the target PRC1 N-terminus (Homo sapiens) (UniProt O43663). Particulars: cited from earlier work.
The target in experiment [2] is PRC1 (unlabeled, full-length) (human) (UniProt O43663).

The values that follow come from publication PMC6200392.

Regarding Kif4A C-terminus (from UniProt O95239), the Kd in experiment [1] was 300 nM.

“Kif4A-GFP (from UniProt O95239 1-1232) (natural protein)”: the relative sliding of PRC1-crosslinked antiparallel microtubules, average phase-1 sliding velocity; 0.2 and 1 nM PRC1 at 6 nM Kif4A-GFP in experiment [2] came to 4.6 ×10⁻⁶ cm/s.

Usually Kd stands for the concentration at which binding is half-saturated.
